We go through four molecules from patent publication US20190060394A1 (HONG KONG BAPTIST UNIVERSITY, published 2019).

Where a chain is given by its changes, count along the chain named. Where no end group is shown, it is not given here. [ ]: non-standard residue; d: D form. Ahx = NCCCCCC(=O)O

The target of assay [1] is bovine serum albumin (BSA) (bovine) (UniProt P02769). Kind of assay: luminescence titration, selectivity assay.
In assay [2] the target is T1, EBNA1 as present in the nucleus of EBV-positive cells (C666-1, NPC43, Raji) (Epstein-Barr virus, UniProt P03211 1-641).
T1 sequence: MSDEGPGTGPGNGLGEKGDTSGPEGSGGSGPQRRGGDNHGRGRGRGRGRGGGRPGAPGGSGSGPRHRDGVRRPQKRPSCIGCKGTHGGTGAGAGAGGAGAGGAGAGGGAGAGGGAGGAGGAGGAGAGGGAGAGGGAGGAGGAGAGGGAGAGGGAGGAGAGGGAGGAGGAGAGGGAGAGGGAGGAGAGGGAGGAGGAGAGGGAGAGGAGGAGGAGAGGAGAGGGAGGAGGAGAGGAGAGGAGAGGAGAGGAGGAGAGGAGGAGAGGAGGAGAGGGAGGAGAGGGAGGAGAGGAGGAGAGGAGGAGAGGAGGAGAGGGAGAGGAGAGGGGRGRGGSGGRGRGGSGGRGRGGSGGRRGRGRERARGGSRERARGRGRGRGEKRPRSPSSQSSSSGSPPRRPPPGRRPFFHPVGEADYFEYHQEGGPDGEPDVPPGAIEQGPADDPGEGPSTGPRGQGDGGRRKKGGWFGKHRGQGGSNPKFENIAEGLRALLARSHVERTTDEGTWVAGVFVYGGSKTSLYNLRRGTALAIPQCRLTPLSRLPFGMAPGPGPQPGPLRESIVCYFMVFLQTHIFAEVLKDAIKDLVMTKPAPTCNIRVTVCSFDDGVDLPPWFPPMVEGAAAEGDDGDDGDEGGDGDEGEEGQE
Description: cell-based or functional assay.

In assay [3] the target is T2, EBNA1-Y561A (EBNA1 379-641 GST fusion with point mutation Y561A) (Epstein-Barr virus, UniProt P03211 379-641).
T2 construct: Made by site-directed mutagenesis of the WT construct; not shown: glutathione S-transferase (GST) fusion partner
T2 sequence: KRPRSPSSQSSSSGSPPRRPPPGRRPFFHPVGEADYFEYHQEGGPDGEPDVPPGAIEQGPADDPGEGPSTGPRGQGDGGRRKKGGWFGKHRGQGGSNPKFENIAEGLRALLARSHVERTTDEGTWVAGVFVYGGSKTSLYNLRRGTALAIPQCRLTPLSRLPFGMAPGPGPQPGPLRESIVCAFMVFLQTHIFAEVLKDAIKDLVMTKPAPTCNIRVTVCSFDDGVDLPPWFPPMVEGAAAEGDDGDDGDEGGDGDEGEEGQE
Description: luminescence titration, selectivity assay.

Assay [4] concerns the target T3, EBNA1-F565A (EBNA1 379-641 GST fusion with point mutation F565A) (Epstein-Barr virus, UniProt P03211 379-641).
T3 construct: Made by site-directed mutagenesis of the WT construct; not shown: glutathione S-transferase (GST) fusion partner
T3 sequence: T2 sequence with A183Y, F187A
Kind of assay: luminescence titration, selectivity assay.

In assay [5] the target is T4, EBNA1-M563A (EBNA1 379-641 GST fusion with point mutation M563A) (Epstein-Barr virus, UniProt P03211 379-641).
T4 construct: Made by site-directed mutagenesis of the WT construct; not shown: glutathione S-transferase (GST) fusion partner
T4 sequence: T2 sequence with A183Y, M185A
Kind of assay: luminescence titration, selectivity assay.

Assay [6] addresses T5, EBNA1-3A (EBNA1 379-641 GST fusion with YFMVF mutated to FFAVA) (Epstein-Barr virus, UniProt P03211 379-641).
T5 construct: also called EBNA1-3A mutant; mutant EBNA1; not shown: glutathione S-transferase (GST) fusion partner
T5 sequence: T2 sequence with A183F, M185A, F187A
Kind of assay: luminescence titration, selectivity assay.

Assay [7] has as its target T6, Wild type EBNA1 protein (379-641 a.a.) fusing with glutathione S-transferase (Epstein-Barr virus, UniProt P03211 379-641).
T6 construct: Expressed in E. coli (BL21), purified on glutathione sepharose; also called WT-EBNA1; WT EBNA1; not shown: glutathione S-transferase (GST) fusion partner
T6 sequence: T2 sequence with A183Y
Description: luminescence titration in PBS, same conditions as L2P4.

Assay [8] has as its target T6, Wild type EBNA1 protein (379-641 a.a.) …. Description: luminescence titration in PBS, double logarithm regression.
Assay [9] shares this target. Kind of assay: luminescence titration in PBS buffer.

bovine serum albumin (BSA) (bovine), sequence (P02769 25-607 limits assumed): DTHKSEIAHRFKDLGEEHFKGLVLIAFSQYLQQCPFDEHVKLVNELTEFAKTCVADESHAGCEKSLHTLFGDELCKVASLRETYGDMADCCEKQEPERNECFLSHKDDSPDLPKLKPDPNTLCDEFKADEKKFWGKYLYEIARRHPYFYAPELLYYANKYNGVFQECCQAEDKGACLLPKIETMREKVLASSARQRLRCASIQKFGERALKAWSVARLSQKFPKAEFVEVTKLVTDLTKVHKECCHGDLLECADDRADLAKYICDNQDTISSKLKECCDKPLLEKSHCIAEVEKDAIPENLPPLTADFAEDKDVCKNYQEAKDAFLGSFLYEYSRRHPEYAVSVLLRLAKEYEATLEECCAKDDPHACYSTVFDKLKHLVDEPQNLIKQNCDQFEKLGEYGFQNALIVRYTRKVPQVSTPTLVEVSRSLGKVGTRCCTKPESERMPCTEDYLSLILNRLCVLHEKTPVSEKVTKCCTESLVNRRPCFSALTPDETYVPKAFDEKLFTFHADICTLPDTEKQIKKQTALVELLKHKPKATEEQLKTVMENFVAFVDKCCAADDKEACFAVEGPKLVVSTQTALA

“L2P4 (peptide conjugate: L2, 4-(4-(diethylamino)styryl)-N-carboxymethylpyridinium, coupled through an amide bond to peptide P4, CAhxYFMVFGGRrRK)” gave a log Kassoc in assay [1] of 4.7 log Kassoc.

B1: L2P4 (peptide conjugate: L2, 4-(4-(diethylamino)styryl)-N-carboxymethylpyridinium, coupled through an amide bond to peptide P4, CAhxYFMVFGGRrRK) (peptide)
peptide: CXYFMVFGGRXRK
modifications: L2 (4-(4-(diethylamino)styryl)-N-carboxymethylpyridinium) coupled to the peptide through an amide bond; Ahx = 6-aminohexanoic acid (position 2); r = D-arginine (position 11); synthesised on Rink amide resin
notes: Fluorescent dye-peptide conjugate; also called formula (I)
Consider B1, for which, in assay [2], the “in vitro emission intensity in the nucleus of EBV-positive C666-1 cells (confocal microscopy), L2P4 against L2P3” value was found to be 3 fold over L2P3. The “log Kassoc” value stood at 5.1 log Kassoc in [3], 4.3 log Kassoc in assay [4], 3.6 log Kassoc in [5] and 3.9 log Kassoc in [6].

B2: L2P3 (peptide conjugate: L2 coupled to peptide P3, CAhxRrRKGGYFMVF) (peptide)
peptide: C[Ahx]R[dR]RKGGYFMVF-NH2
modifications: not fully specified (N-terminus); printed as CAhxRrRKGGYFMVF; also: L2 dye coupled to the peptide, site not given here
notes: Fluorescent dye-peptide conjugate
Turning to B2, the “increase in emission intensity (fold)” value in [7] is 4.7 fold. In assay [8], the binding ratio is 1 probe : WT-EBNA1.

B3: L2P2 (peptide conjugate: L2 coupled to peptide P2, YFMVF) (peptide)
peptide: YFMVF-NH2
modifications: not fully specified (N-terminus); also: L2 dye coupled to the peptide, site not given here
notes: as for B2
As to B3, the binding result in assay [9] is reported as “no binding”.
